Tests used:
Assay in all cases: holdup assay
Design in all cases: key: below the threshold = too weak to quantify, mostly under pKd 3.1 to 4
[1] = biological target: PTPN3, P26045
[2] = biological target: PICK1, Q9NRD5
[3] = biological target: T1, DFNB31_2, Q9P202
T1 sequence (Q9P202 274-371, limits assumed, looked up): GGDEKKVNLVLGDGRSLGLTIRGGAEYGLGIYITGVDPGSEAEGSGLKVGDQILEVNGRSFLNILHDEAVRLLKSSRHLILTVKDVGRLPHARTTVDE

[4] = biological target: T2, SNTB1, Q13884
T2 sequence (Q13884 107-205, limits assumed, looked up): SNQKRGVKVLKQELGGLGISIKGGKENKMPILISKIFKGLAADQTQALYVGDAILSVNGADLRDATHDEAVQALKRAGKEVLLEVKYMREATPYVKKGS

[5] = biological target: T3, ARHGAP21, Q5T5U3
T3 sequence (Q5T5U3 45-169, limits assumed, looked up): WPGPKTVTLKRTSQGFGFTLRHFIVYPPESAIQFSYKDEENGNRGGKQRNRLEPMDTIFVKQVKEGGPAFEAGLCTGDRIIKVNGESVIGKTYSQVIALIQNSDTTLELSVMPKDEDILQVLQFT

[6] = biological target: T4, DFNB31_3, Q9P202
T4 sequence (Q9P202 811-907, limits assumed, looked up): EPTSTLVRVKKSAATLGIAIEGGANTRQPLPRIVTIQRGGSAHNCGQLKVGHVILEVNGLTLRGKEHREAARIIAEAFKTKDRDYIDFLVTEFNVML

[7] = biological target: T5, MPDZ_12, O75970
T5 sequence (O75970 1857-1958, limits assumed, looked up): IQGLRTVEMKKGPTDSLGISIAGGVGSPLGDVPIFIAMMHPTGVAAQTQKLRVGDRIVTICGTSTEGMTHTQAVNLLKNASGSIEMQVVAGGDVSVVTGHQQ

[8] = biological target: T6, DFNB31_1, Q9P202
T6 sequence (Q9P202 135-233, limits assumed, looked up): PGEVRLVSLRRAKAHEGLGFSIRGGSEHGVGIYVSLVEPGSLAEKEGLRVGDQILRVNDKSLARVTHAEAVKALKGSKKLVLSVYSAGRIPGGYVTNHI

[9] = biological target: T7, LNX2_2, Q8N448
T7 sequence (Q8N448 334-432, limits assumed, looked up): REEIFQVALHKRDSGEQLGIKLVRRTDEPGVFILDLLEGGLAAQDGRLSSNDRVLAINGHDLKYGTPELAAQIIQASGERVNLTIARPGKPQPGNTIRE

[10] = biological target: Inadl_10, Q8NI35
[11] = biological target: FRMPD4, Q14CM0
[12] = biological target: IL16_3, Q14005
[13] = biological target: T8, HTRA3, P83110
T8 sequence (P83110 354-453, limits assumed, looked up): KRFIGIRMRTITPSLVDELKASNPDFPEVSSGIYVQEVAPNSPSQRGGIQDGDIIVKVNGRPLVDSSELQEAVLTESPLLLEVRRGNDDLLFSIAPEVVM

[14] = biological target: T9, TJP3_3, O95049
T9 sequence (O95049 375-456, limits assumed, looked up): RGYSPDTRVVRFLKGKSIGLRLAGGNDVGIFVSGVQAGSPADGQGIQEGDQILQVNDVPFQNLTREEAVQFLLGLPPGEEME

[15] = biological target: Inadl_4, Q8NI35
[16] = biological target: MAGI2_6, Q86UL8
[17] = biological target: GIPC2, Q8TF65
[18] = biological target: SNX27, Q96L92
[19] = biological target: T10, SNTG1, Q9NSN8
T10 sequence (Q9NSN8 52-150, limits assumed, looked up): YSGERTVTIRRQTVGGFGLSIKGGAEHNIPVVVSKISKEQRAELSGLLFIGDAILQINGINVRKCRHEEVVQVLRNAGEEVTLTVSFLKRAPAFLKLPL

[20] = biological target: T11, APBA2_2, Q99767
T11 sequence (Q99767 654-744, limits assumed, looked up): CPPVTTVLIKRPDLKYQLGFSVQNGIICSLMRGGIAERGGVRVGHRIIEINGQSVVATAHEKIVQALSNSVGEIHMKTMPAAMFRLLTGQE

[21] = biological target: T12, RAPGEF6, Q8TEU7
T12 sequence (Q8TEU7 525-625, limits assumed, looked up): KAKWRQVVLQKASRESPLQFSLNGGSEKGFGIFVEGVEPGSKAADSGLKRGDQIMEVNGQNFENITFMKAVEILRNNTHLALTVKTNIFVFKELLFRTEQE

[22] = biological target: SCRIB_1, Q14160
[23] = biological target: NOS1, P29475
[24] = biological target: T13, CARD11, Q9BXL7
T13 sequence (Q9BXL7 662-765, limits assumed, looked up): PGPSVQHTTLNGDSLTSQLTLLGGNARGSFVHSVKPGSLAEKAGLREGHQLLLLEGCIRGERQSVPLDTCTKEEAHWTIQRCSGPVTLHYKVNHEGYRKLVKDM

[25] = biological target: NHERF4_2, Q86UT5
[26] = plain residues with an end cap or a label only (N-terminal biotin on a linker: (peg)3)
[27] = plain residues with an end cap or a label only (N-terminal biotin on a linker: ado-ado)

Measured: pKd

Sequence of IL16_3, Q14005 (Q14005 1107-1207): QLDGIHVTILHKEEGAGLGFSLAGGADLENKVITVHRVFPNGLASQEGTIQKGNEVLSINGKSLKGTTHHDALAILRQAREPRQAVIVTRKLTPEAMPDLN
Sequence of Inadl_10, Q8NI35 (Q8NI35 1673-1763): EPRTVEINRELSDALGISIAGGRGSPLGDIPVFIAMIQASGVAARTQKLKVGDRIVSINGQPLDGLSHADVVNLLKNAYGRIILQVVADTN
Sequence of GIPC2, Q8TF65 (Q8TF65 112-203): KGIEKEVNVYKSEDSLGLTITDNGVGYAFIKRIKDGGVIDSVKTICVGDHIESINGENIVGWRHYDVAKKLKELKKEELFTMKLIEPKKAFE
Sequence of PICK1, Q9NRD5 (Q9NRD5 17-115): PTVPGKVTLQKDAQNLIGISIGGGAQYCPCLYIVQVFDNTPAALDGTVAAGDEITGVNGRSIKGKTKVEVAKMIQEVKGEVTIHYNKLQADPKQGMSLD
Sequence of SCRIB_1, Q14160 (Q14160 718-814): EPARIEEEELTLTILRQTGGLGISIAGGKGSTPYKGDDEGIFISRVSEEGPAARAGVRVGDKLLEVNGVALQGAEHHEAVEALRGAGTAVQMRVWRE
Sequence of NOS1, P29475 (P29475 9-101): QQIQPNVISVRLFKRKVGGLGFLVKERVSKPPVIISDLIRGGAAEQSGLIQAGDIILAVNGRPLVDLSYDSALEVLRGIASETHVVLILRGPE
Sequence of Inadl_4, Q8NI35 (Q8NI35 547-651): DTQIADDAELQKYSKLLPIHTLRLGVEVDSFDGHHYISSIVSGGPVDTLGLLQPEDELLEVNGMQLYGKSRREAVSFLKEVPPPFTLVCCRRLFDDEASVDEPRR
Sequence of NHERF4_2, Q86UT5 (Q86UT5 220-308): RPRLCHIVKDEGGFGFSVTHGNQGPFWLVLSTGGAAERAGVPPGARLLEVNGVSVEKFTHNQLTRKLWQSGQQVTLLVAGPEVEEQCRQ
Sequence of FRMPD4, Q14CM0 (Q14CM0 67-160): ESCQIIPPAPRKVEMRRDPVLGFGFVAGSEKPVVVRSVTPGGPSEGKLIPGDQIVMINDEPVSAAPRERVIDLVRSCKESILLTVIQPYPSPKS
Sequence of MAGI2_6, Q86UL8 (Q86UL8 1141-1229): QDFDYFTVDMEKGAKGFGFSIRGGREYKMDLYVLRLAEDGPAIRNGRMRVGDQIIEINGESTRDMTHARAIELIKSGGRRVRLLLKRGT
Sequence of PTPN3, P26045 (P26045 505-587): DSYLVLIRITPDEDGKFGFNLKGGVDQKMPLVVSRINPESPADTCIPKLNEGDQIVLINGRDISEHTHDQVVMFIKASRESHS

B1: SARS-CoV-E, P59637 (peptide)
chain: NLNSSEGVPDLLV
below the threshold: [1]; [26] | [2]; [26] | [3]; [26] | [4]; [26] | [6]; [26] | [7]; [26] | [8]; [26] | [10]; [26] | [11]; [26] | [12]; [26] | [13]; [26] | [14]; [26] | [15]; [26] | [16]; [26] | [17]; [26] | [18]; [26] | [19]; [26] | [20]; [26] | [21]; [26] | [22]; [26] | [23]; [26] | [24]; [26] | [25]; [26]
4.24: [9]; [26]
3.88: [5]; [26]

B2: CES3, Q6UWW8 (peptide)
chain: QKNRKAQEDL
4.05: [6]; [27]
3.74: [1]; [27]
4: [2]; [27]
3.5: [24]; [27]
below the threshold: [3]; [27] | [4]; [27] | [5]; [27] | [7]; [27] | [8]; [27] | [9]; [27] | [10]; [27] | [11]; [27] | [12]; [27] | [13]; [27] | [14]; [27] | [15]; [27] | [16]; [27] | [17]; [27] | [18]; [27] | [19]; [27] | [20]; [27] | [21]; [27] | [22]; [27] | [23]; [27] | [25]; [27]

B3: PDLIM4_iso2, P50479;P50479-1 (peptide)
chain: VYPNAKVELV
4.62: [9]; [27]
below the threshold: [3]; [27] | [4]; [27] | [6]; [27] | [7]; [27] | [8]; [27] | [10]; [27] | [11]; [27] | [12]; [27] | [14]; [27] | [15]; [27] | [16]; [27] | [17]; [27] | [18]; [27] | [19]; [27] | [20]; [27] | [21]; [27] | [22]; [27] | [24]; [27] | [25]; [27]
4.26: [2]; [27]
4.05: [23]; [27]

From PMC9482650, “Quantitative fragmentomics allow affinity mapping of interactomes” (Nature Communications, 2022)
